Among the data in US20180282410A1 (Hoffmann-La Roche, published 2018) are Kd, koff and kon values, retold here.

What all share (test): SPR Biacore T100, IgG captured via anti-human Fab, antigen as analyte (affinity)
(In SPR one partner is held on a chip, and binding of the other changes the refractive index at the surface.)

Assay [1] deals with T1, human (hu) Robo 4 extracellular domain (ECD)-precision site (PreS)-Avi-tag (Avi)-6x histidine (His) (human).
T1 construct: it holds the ECD with PreScission site, Avi-tag and His-tag; also called recombinant human Robo 4; human Robo 4
T1 chain: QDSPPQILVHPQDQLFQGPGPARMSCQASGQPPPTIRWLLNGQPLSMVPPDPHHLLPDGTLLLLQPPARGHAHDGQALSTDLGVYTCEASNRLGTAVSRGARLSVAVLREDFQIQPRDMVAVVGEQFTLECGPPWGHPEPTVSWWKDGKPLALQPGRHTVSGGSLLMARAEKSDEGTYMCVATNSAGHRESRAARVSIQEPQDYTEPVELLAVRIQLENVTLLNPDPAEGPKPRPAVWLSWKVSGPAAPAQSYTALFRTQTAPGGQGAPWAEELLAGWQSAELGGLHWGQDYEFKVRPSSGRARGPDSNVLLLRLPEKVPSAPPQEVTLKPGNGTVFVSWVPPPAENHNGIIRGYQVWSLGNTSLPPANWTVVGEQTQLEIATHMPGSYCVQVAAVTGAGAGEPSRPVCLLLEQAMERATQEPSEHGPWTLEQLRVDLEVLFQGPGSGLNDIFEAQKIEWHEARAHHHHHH
Here is the method: (§1) All surface plasmon resonance (SPR) experiments are performed on a Biacore T100 at 25° C. with HBS-EP as running buffer (0.01 M HEPES pH 7.4, 0.15 M NaCl, 3 mM EDTA, 0.005% Surfactant P20 (Biacore)).
(§2) Anti Robo 4 antibodies were captured for 60 s at 50 nM. Recombinant human, murine and cynomolgus Robo 4 were passed at a concentration range from 0.46-1000 nM with a flow of 30 μl/min through the flow cells over 90 s. The dissociation was monitored for 120 s. Bulk refractive index differences were corrected for by subtracting the response obtained on a reference flow cell. Here, the antigens were flown over a surface with immobilized anti-human Fab specific antibody on which HBS-EP has been injected rather than the antibodies.
(§3) Kinetic constants were derived using the Biacore T100 Evaluation Software (vAA, Biacore), to fit rate equations for 1:1 Langmuir binding by numerical integration.

Assay [2] addresses T2, murine (mu) Robo 4 ECD-PreS-Avi-His (mouse).
T2 construct: also called recombinant murine Robo 4; murine Robo 4
T2 chain: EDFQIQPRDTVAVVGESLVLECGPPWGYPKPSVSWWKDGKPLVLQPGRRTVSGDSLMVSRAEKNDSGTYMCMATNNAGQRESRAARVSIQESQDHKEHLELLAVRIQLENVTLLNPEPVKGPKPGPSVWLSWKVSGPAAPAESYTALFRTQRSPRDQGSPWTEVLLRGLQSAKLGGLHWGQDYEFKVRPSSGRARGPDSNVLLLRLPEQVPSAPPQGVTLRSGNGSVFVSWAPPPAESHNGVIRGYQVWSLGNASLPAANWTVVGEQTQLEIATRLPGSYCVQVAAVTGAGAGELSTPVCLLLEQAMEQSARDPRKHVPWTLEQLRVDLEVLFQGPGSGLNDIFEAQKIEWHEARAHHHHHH
Here is the method:
as §1, §2, §3

The target in assay [3] is T3, recombinant cynomolgus Robo 4 ECD fused to AcTEV protease recognition site, Avi- and 6xHis-tag (cynomolgus).
T3 construct: Biotinylated in the avidity assay
T3 chain: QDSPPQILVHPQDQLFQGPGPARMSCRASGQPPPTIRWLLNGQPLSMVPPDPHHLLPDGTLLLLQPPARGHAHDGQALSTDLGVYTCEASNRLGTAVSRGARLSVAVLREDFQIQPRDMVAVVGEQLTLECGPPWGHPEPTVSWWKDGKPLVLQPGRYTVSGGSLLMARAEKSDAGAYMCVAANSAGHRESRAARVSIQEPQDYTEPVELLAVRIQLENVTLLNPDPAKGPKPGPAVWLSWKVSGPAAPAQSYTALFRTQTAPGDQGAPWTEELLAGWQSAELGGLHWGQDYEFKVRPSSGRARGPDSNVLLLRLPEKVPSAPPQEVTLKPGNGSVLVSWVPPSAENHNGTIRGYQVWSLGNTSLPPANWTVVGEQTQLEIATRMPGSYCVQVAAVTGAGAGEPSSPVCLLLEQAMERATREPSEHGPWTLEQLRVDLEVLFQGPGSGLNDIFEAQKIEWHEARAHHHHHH
As to the method: as §1, §2, §3

B1: 01F05 anti-Robo 4 IgG (antibody, V domains shown)
VH: QVQLKQSGAELVKPGASVKISCKTSVYTFTYGYMHWVEQKPGQGLEWIGRIDPDSGNSMYNQKFQGRATLTRDKSSSTVYMELRSLTSEDSAVYYCARSMRYSGYRDYALDLWGQGTQVTVSS
VL: QLVLTQSPSASASLGASVKLTCTLSSQHSSYGITWLQQHPDKAPKYVMYLKSDGSHTKGADIPDRFSGSSSGVHRYLSISNVQPEDEAIYFCVTYDSTHVFGSGTQLTVLG
notes: also called 01F05 IgG
By Kd is commonly meant the concentration at which binding is half-saturated. The koff is the first-order rate constant of dissociation. By kon is commonly meant the rate constant with which the complex forms. In assay [1], B1 showed a Kd of 15.3 nM, a koff of 0.00091 s⁻¹ and a kon of 59600 M⁻¹ s⁻¹. In assay [2], this molecule gave a Kd of 10.1 nM, an off-rate constant (koff) of 0.00031 s⁻¹ and a kon of 30800 M⁻¹ s⁻¹. In addition, in assay [3], the Kd stood at 144 nM, the off-rate (koff) is 0.00191 s⁻¹ and the association rate constant (kon) was 13300 M⁻¹ s⁻¹.

B2: 7G2 anti-Robo 4 IgG (antibody, V domains shown)
VH: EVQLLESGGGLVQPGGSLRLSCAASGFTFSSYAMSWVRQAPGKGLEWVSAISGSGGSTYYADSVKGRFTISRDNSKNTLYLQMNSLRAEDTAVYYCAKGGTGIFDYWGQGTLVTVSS
VL: EIVLTQSPGTLSLSPGERATLSCRASQSVSSSYLAWYQQKPGQAPRLLIYGASSRATGIPDRFSGSGSGTDFTLTISRLEPEDFAVYYCQQGQLPPRTFGQGTKVEIK
notes: also called 7G2 IgG
In assay [1], B2 registered a Kd of 23.4 nM, an off-rate constant (koff) of 0.00102 s⁻¹ and an on-rate (kon) of 43800 M⁻¹ s⁻¹. In addition, in assay [3], the dissociation constant Kd is 64.1 nM, the koff turned out to be 0.00116 s⁻¹ and the on-rate (kon) was 18100 M⁻¹ s⁻¹.

B3: 01E06 anti-Robo 4 IgG (antibody, V domains shown)
VH: EVQLVESGGGLSQPGNSLKLSCEASGFTFRNYDMSWVRQAPGKGLEWVAYISSGGGPIYYVDAVKGRFTISRDNAKNLLFLQMNNLRSEDTAVYYCARDLADIGVFDYWGQGTMVTVSS
VL: DFKMTQSPDILSPSLGESVTITCQSSQNIYSNLAWYQQKPGEHPKLLIYTASILADGIPSRFTGSGSGTQFSLKISSLQPDDVANYYCQQYVYYRTFGPGTKLEIK
notes: also called 01E06 IgG
In the case of B3, the Kd worked out at 0.69 nM in assay [1], 166 nM in assay [2] and 0.96 nM in assay [3]. The off-rate (koff) in assay [1] was found to be 0.00033 s⁻¹; in assay [2], 0.0128 s⁻¹; in assay [3], 8e-05 s⁻¹. Besides, the values for the association rate constant (kon) in assay [1], in assay [2] and in assay [3] were 479000 M⁻¹ s⁻¹, 77100 M⁻¹ s⁻¹ and 80400 M⁻¹ s⁻¹, respectively.

B4: 01F09 anti-Robo 4 IgG (antibody, V domains shown)
VH: QIQLQESGPGLVKPSQSLSLTCSVTGYSISSGSLWTWIRQFPGNNLEWMGYISYAGGIDYNPSLTSRISITRDTSRNQFFLQLESVTTQDTATYYCATPGGYPFHFDYWGQGTMVTVSS
VL: QPVLTQSPSASASLGASVKLTCTLNSQFSTYNIGWYQQHRDKPPKYVMFVKGDGGHSKADGIPDRFSGSSSGADRYLTISNIQAEDEAIYFCGADYNNAGQYGCVFGSGTHFTVLG
notes: also called 01F09 IgG
In assay [1], B4 had an equilibrium dissociation constant (Kd) of 2.63 nM, an off-rate (koff) of 0.00063 s⁻¹ and an on-rate constant (kon) of 241000 M⁻¹ s⁻¹. For the same molecule, in assay [2], binding was put at a Kd of 256 nM, the koff is 0.0307 s⁻¹ and the kon was determined as 120000 M⁻¹ s⁻¹. In assay [3], the dissociation constant (Kd) amounted to 474 nM, the koff worked out at 0.0315 s⁻¹ and the kon was determined as 66600 M⁻¹ s⁻¹.
